# Columns and labels:
# [1] = system: RUES2-CMs; experiment: Immunocytochemistry (α-actinin staining) and morphological analysis of lentivirally transduced cardiomyocytes; format: cell-based, human; conditions: Lin28a OE CMs compared to EV control
# Method: Undifferentiated human embryonic stem cell (hESCs) lines H7 (NIHhESCC-10-0061) and RUES2 (NIHhESC-09-0013) were expanded using mouse embryonic fibroblast-conditioned medium with 5 ng/ml basic fibroblast growth factor. H7-CMs were derived using previously reported protocols^1-3. RUES2-CMs were used for all functional analyses and these were derived using a cardiac progenitor cell differentiation protocol^4 derived from previously reported monolayer directed differentiation methods^1, 5, 6. In brief, this involves the induction of a monolayer of hESCs with activin A and bone morphogenetic protein-4 (BMP4) under serum- and insulin-free conditions. During the early stages of differentiation, the cells were also exposed to the Wnt agonist CHIR 99021 followed by the Wnt antagonist Xav939. From 7 days of in vitro differentiation, the cells were fed every alternate day with serum-free RPMI-B27 plus insulin media. After 20 days of in vitro differentiation, the cells were trypsinized and replated. Only those cell preparations that had at least 70% cardiac troponin T-positive CMs (as observed by flow cytometry) were used for further experiments. For experiments where the H7-CMs were cultured for around a year, the cells were replated after the 3rd and 11th month from day 0. At the 11th month, FACS analysis for cTnT was conducted and the CMs were split into three parts and were cultured as three independent replicates for another 1.5 months after which they were harvested for RNA extraction. IMR90iPSC-CMs cultured for 1 yr were replated at day 20 and split every 2 months for 12 months before harvesting for RNA extraction. To generate engineered cardiac tissue, the inventors used the procedure reported by Tulloch et al.^2 In brief, day 20 CMs are suspended in the collagen gel at 10,000/μl, and rod-shaped constructs of 25 μl (1 mm radius×8 mm length) were generated by casting in a preformed mold and warming to 37° C. The ends of the mold contain Velcro-like micro-fiber loops, and these become impregnated with gel+cell mixture. These tabs allow the constructs to be maintained under static tension, which facilitates alignment and differentiation of the CMs. The constructs were maintained in the serum-free RPMI-B27 plus glutamine media up to 2 weeks. For let-7 overexpression analysis, the CMs were transduced with the virus carrying the pLKO-let-7 or empty vector control pLKO plasmid at day 12 of the directed differentiation protocol. After overnight transduction the virus was removed, cells were rinsed with PBS and new media added. The samples were analyzed at day 30 from the initiation of differentiation.
# All morphological analyses were carried out using at least 50 cells. Cells replated in chamber slides were fixed in 4% paraformaldehyde for 15 minutes followed by PBS wash. The fixed cells were blocked for an hour with 1.5% normal goat serum and incubated O/N with mouse alpha actinin (sigma) primary antibody. The primary antibody was rinsed with PBS and incubated with secondary antibody (Alexa fluor 488 [Goat anti mouse]) for an hour followed by nuclear staining using DAPI. For cell area and perimeter measurements, images were acquired and processed using ZEISS™ AXIO fluorescent microscope and AXIOVISION™ software. For sarcomere length, images were acquired and processed using LEICA™ TCS-SPE confocal microscope and LEICA™ software. These confocal images were used to select 1-2 myofibrils per cell with at least ten continuous, well-recognized alpha-actinin bands and divided the length value by the number of sarcomeres. The images were further analyzed using IMAGE J™ software.
# For lenti-let-7 OE constructs, Pri-miR-let-7i and pri-miR-let-7g sequence was amplified from H7 genomic DNA using forward primer for let-7i-TCCGCGTGGTCCCGT; reverse primer for let-7i-ATTGTCCTCCGCGGCGC and forward primer for let-7g-AGAGTTCCTCCAGCGCTCC; reverse primer for let-7g-CCCCACTTGGCAGCTGGC, resulting in 153 bp and 154 bp products, respectively. […]
# [2] = system: RUES2-CMs; experiment: mRNA and miRNA qPCR analysis in transduced RUES2-CMs; format: cell-based, human; conditions: Lin28a OE hESC-CMs
# Method: Undifferentiated human embryonic stem cell (hESCs) lines H7 (NIHhESCC-10-0061) and RUES2 (NIHhESC-09-0013) were expanded using mouse embryonic fibroblast-conditioned medium with 5 ng/ml basic fibroblast growth factor. H7-CMs were derived using previously reported protocols^1-3. RUES2-CMs were used for all functional analyses and these were derived using a cardiac progenitor cell differentiation protocol^4 derived from previously reported monolayer directed differentiation methods^1, 5, 6. In brief, this involves the induction of a monolayer of hESCs with activin A and bone morphogenetic protein-4 (BMP4) under serum- and insulin-free conditions. During the early stages of differentiation, the cells were also exposed to the Wnt agonist CHIR 99021 followed by the Wnt antagonist Xav939. From 7 days of in vitro differentiation, the cells were fed every alternate day with serum-free RPMI-B27 plus insulin media. After 20 days of in vitro differentiation, the cells were trypsinized and replated. Only those cell preparations that had at least 70% cardiac troponin T-positive CMs (as observed by flow cytometry) were used for further experiments. For experiments where the H7-CMs were cultured for around a year, the cells were replated after the 3rd and 11th month from day 0. […] The samples were analyzed at day 30 from the initiation of differentiation. […]
# [3] = system: HECT293FT cells; experiment: Lipofectamine transient transfection of plko-let-7g and plko-let-7g-E plasmids, mature let-7g and target expression after 24 hrs; format: cell-based; conditions: 24 hrs after transfection
# Method: FIGS. 20A-20B Modified let-7g (let-7g-E) is more efficient in generating mature let-7g in HECT293FT cells. Let-7g and a modified version of let-7g (plko-let-7g-E) were induced in hect 293 FT cells by introducing plko-let-7g and plko-let-7g-E plasmids with lipofectamine transient transfection assay. 24 hrs after transfection, cells were tested for mature let-7g expression. […] (FIG. 20B) Targets of let-7 are repressed when we over-express let-7g-E similar to that seen during over-expression of let-7g.
molecule,measurement,setting,value
"Lin28a: Lin28a over-expressed in RUES2-CMs; LIN28 is the negative regulator of let-7 processing (protein, UniProt Q9H9Z2 2-209, looked up) Protein lin-28 homolog A: GSVSNQQFAGGCAKAAEEAPEEAPEDAARAADEPQLLHGAGICKWFNVRMGFGFLSMTARAGVALDPPVDVFVHQSKLHMEGFRSLKEGEAVEFTFKKSAKGLESIRVTGPGGVFCIGSERRPKGKSMQKRRSKGDRCYNCGGLDHHAKECKLPPQPKKCHFCQSISHMVASCPLKAQQGPSAQGKPTYFREEEEEIHSPTLLPEAQN",cell area,[1],significant decrease
same,circularity index,[1],increase
same,sarcomere length,[1],significant decrease
same,cell perimeter,[1]; N=50 cells per condition,significant decrease
same,let-7i and let-7g expression,[2],down-regulated
"let-7g-E: modified hsa-let-7g with mutated GGAG LIN28 binding motif, SEQ ID NO: 12 (also SEQ ID NO: 16) (nucleic acid, listed as Homo sapiens, listed as RNA, chemistry not fully specified) AGGCUGAGGUAGUAGUUUGUACAGUUUGAGGGUCUAUGAUACCACCCGGUACAUCAGAUAACUGUACAGGCCACUGCCUUGCCA",Targets of let-7 expression,[3],repressed
same,mature let-7g expression,[3]; compared to EV and native let-7g,much higher expression

# Reference: patent US9624471B2, “Methods for maturing cardiomyocytes and uses thereof” (UNIVERSITY OF WASHINGTON THROUGH ITS CENTER FOR …, priority 2013, dated 2017)
